Assays:
[1] = biological target: human Met-Fc chimera (human) (UniProt P08581); test: ELISA
[2] = biological target: human Met receptor on cells (human) (UniProt P08581); test: cell-based or functional assay
human Met receptor on cells (human), sequence (P08581 25-1390): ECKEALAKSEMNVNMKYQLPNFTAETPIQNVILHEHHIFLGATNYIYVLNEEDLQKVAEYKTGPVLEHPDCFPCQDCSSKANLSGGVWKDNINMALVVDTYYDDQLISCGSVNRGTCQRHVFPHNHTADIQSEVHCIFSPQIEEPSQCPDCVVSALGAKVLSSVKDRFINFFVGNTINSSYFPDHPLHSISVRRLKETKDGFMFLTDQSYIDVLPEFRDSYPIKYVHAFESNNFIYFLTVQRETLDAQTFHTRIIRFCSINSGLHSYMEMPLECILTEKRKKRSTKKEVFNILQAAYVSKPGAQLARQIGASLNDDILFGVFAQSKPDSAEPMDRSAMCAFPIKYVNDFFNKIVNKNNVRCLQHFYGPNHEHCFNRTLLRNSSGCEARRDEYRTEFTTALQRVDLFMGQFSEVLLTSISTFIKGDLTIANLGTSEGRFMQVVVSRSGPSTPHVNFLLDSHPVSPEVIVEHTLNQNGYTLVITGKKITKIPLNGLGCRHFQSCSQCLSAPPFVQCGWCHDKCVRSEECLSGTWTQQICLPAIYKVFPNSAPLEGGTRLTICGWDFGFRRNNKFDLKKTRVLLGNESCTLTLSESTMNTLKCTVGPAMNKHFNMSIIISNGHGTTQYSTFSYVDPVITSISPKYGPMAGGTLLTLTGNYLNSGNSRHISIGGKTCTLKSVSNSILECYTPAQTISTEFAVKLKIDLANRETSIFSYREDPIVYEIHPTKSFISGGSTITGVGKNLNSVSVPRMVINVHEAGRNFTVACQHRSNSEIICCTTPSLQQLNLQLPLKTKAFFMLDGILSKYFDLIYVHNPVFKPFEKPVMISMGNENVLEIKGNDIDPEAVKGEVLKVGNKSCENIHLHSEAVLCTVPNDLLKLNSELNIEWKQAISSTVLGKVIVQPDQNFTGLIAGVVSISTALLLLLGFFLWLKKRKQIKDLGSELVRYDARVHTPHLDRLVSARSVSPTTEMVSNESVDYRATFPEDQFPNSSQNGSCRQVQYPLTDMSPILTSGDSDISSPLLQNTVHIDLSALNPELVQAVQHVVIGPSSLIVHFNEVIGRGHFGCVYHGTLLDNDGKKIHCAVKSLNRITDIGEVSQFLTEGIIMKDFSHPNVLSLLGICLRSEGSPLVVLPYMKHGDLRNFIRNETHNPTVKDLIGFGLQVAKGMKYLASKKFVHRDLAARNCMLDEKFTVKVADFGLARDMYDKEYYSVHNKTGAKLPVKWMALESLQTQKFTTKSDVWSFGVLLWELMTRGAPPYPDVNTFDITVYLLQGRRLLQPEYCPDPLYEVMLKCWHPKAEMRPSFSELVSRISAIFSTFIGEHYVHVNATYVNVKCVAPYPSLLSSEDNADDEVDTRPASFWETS

human Met-Fc chimera (human), sequence (P08581 25-932, change not shown): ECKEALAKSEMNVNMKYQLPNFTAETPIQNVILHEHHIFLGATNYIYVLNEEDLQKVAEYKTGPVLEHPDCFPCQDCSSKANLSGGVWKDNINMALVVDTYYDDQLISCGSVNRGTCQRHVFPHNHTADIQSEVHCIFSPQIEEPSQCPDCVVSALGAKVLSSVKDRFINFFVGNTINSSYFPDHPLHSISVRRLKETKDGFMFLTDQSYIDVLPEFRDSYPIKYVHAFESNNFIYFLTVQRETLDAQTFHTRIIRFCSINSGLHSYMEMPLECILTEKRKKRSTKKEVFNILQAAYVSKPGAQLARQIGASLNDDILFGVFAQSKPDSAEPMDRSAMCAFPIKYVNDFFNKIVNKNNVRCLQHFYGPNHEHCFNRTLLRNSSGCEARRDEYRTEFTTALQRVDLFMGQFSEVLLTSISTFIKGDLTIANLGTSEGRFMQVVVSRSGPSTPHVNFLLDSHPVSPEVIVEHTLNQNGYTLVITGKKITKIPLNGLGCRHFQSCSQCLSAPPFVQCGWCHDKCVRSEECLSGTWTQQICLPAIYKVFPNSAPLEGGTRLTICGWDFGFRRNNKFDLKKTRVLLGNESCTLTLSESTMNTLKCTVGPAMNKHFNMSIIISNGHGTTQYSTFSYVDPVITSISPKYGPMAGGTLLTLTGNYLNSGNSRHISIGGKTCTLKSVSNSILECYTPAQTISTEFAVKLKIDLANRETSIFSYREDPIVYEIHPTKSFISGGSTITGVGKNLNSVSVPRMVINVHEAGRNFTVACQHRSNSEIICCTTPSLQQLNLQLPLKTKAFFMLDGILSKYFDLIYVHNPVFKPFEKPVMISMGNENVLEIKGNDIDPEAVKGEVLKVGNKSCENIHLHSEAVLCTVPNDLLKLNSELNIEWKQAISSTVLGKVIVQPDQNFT

| Kd [1] | percentage of GTL-16 cells in S phase (EdU), 1 uM antibody [2] | reduction of proliferating GTL-16 cells versus control (EdU), 1 uM antibody [2] | Substance |
| --- | --- | --- | --- |
| 0.319 nM |  |  | chOA-DN30 |
|  | 15% | 52% | chOA-DN30 (antibody) |

— patent publication US20210395372A1
